B1: GFP-JIP1-WT, Q9WVI9-1 V581A (protein)
chain: MAERESGLGGGAASPPAASPFLGLHIASPPNFRLTHDISLEEFEDEDLSEITDECGISLQCKDTLSLRPPRAGLLSAGSSGSAGSRLQAEMLQMDLIDAAGDTPGAEDDEEEEDDELAAQRPGVGPPKAESNQDPAPRSQGQGPGTGSGDTYRPKRPTTLNLFPQVPRSQDTLNNNSLGKKHSWQDRVSRSSSPLKTGEQTPPHEHICLSDELPPQGSPVPTQDRGTSTDSPCRRSAATQMAPPSGPPATAPGGRGHSHRDRIHYQADVRLEATEEIYLTPVQRPPDPAEPTSTFMPPTESRMSVSSDPDPAAYSVTAGRPHPSISEEDEGFDCLSSPERAEPPGGGWRGSLGEPPPPPRASLSSDTSALSYDSVKYTLVVDEHAQLELVSLRPCFGDYSDESDSATVYDNCASASSPYESAIGEEYEEAPQPRPPTCLSEDSTPDEPDVHFSKKFLNVFMSGRSRSSSAESFGLFSCVINGEEHEQTHRAIFRFVPRHEDELELEVDDPLLVELQAEDYWYEAYNMRTGARGVFPAYYAIEVTKEPEHMAALAKNSDWIDQFRVKFLGSVQVPYHKGNDALCAAMQKIATTRRLTVHFNPPSSCVLEISVRGVKIGVKADDALEAKGNKCSHFFQLKNISFCGYHPKNNKYFGFITKHPADHRFACHVFVSEDSTKALAESVGRAFQQFYKQFVEYTCPTEDIYLE
B2: GFP-JIP1-WT, Q9WVI9-1 F642V (protein)
chain: B1 chain with A581V, F642V
B3: GFP-JIP1-WT, Q9WVI9-1 F687V (protein)
chain: B1 chain with A581V, F687V

Drawing on publication PMC3599065, this text covers percent of parent for 3 molecules.

Changes are numbered by the printed parent chain. Numbers in names are those of the source.

kinesin-1 (endogenous, Neuro2a), Q61768;O88447, sequence (chain, as listed by the source, chain 1 of 2): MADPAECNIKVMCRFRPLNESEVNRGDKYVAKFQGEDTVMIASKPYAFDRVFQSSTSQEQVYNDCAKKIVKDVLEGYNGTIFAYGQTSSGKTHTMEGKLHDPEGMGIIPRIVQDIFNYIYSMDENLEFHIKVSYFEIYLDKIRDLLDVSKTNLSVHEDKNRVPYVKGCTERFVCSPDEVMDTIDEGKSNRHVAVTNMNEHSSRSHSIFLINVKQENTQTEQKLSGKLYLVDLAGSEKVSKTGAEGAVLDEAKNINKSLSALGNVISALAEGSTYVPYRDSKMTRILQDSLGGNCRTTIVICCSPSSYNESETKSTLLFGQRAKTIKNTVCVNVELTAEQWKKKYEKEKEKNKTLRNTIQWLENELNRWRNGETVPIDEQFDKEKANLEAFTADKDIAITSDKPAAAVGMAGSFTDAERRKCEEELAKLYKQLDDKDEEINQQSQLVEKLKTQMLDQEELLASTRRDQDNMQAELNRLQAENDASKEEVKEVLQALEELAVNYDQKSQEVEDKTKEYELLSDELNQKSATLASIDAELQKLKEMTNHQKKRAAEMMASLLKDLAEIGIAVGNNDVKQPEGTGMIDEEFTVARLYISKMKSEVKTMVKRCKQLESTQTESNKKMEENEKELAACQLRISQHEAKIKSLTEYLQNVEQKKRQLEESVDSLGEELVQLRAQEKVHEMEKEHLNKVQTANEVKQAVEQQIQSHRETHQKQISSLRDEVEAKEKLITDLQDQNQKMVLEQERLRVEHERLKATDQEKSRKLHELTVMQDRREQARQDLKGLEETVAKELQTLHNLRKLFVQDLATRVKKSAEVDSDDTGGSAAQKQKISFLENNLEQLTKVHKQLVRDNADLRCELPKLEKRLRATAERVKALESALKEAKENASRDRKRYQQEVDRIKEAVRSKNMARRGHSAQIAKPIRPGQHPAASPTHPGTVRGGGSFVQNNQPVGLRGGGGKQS
kinesin-1 (endogenous, Neuro2a), Q61768;O88447, sequence (chain, as listed by the source, chain 2 of 2): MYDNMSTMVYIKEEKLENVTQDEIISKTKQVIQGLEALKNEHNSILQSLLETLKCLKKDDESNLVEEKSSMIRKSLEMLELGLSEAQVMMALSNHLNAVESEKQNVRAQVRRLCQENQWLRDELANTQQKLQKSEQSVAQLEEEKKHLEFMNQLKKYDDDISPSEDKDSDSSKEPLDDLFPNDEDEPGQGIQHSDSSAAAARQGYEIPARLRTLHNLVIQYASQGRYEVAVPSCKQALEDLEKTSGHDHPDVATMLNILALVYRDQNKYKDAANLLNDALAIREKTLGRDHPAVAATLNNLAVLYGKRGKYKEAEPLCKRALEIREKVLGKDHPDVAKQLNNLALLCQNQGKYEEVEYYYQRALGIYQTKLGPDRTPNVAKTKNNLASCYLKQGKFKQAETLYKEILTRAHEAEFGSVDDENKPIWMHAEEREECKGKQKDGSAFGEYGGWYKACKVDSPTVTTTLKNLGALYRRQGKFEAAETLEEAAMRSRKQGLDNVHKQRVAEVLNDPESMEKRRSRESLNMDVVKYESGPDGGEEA

The test has as its target kinesin-1 (endogenous, Neuro2a), Q61768;O88447. In words: co-immunoprecipitation with anti-GFP antibody, western blot for KHC, quantified. The note with it: chain shown with the change, lysates of Neuro2a cells expressing GFP-JIP1 constructs, kinesin-1 signal normalized to precipitated GFP-JIP1, n > 3. A general note: In western blotting, separated proteins are transferred to a membrane and probed.
For B1, the percent of parent was 13.4. Turning to B2, the percent of parent worked out at 3.7. Consider B3, for which the percent of parent is 25.4.
